In patent US11819556B2, “Stabilized compositions of radionuclides and uses thereof” (RayzeBio, Inc., priority 2021, dated 2023):

Experiments:
Type in all cases: physicochemical
[1] = Dextran ratio optimization: radio-TLC purity; conditions: Dextran 10% w/w, 25 μCi/ml, 100 mM sodium ascorbate, 0.05 mg/ml DTPA, saline, pH 5.80, 25° C.
Method: (§1) The mixture was kept at room temperature (25° C.). At different time points, radioactive components of the formulated dose were measured by radio-TLC as described in the table below: […]

[2] = DTPA concentration optimization: radio-TLC purity; conditions: 20 μCi/ml, 100 mM sodium ascorbate pH 5.80, 25° C.
Method: as §1

[3] = Control formulation without excipient (WFI): radio-TLC purity; conditions: 0.02 mCi/ml; for free Actinium / fragments: 25° C.; for Percentage of ^225Ac present in [^225Ac]Ac-DOTA-TATE: pH 6.13, 25° C.
Method: The mixture was kept at room temperature (25° C.). At different time points, purity of [^225Ac]Ac-DOTA-TATE in the formulated dose were measured by radio-TLC as described in the table below: […]

[4] = Sodium ascorbate concentration optimization: radio-TLC purity; conditions: 25° C.
Method: as §1

(2,2′,2″-(10-(2-4(R)-1-(((4R,7S,10S,13R,16S,19R)-13-((1H-indol-3-yl)methyl)-10-(4-aminobutyl)-4-(((1S,2R)-1-carboxy-2-hydroxypropyl)carbamoyl)-16-(4-hydroxybenzyl)-7-((R)-1-hydroxyethyl)-6,9,12,15,18-pentaoxo-1,2-dithia-5,8,11,14,17-pentaazacycloicosan-19-yl)amino)-1-oxo-3-phenylpropan-2-yl)amino)-2-oxoethyl)-1,4,7,10-tetraazacyclododecane-1,4,7-triyl)triacetate; actinium-225(3+)) [[^225Ac]Ac-DOTA-TATE]
Percentage of ^225Ac present in [^225Ac]Ac-DOTA-TATE ([1]; 120 hours): 96.58%
Percentage of ^225Ac present in [^225Ac]Ac-DOTA-TATE ([1]; 144 hours): 95.37%
Percentage of ^225Ac present in [^225Ac]Ac-DOTA-TATE ([2]; DTPA 0.05 mg/ml, 0 hour): 98.74%
Percentage of ^225Ac present in [^225Ac]Ac-DOTA-TATE ([2]; DTPA 0.05 mg/ml, 24 hours): 97.67%
Percentage of ^225Ac present in [^225Ac]Ac-DOTA-TATE ([2]; DTPA 0.05 mg/ml, 48 hours): 95.34%
Percentage of ^225Ac present in [^225Ac]Ac-DOTA-TATE ([2]; DTPA 0.05 mg/ml, 72 hours): 94.62%
Percentage of ^225Ac present in [^225Ac]Ac-DOTA-TATE ([2]; DTPA 0.1 mg/ml, 0 hour): 97.52%
Percentage of ^225Ac present in [^225Ac]Ac-DOTA-TATE ([2]; DTPA 0.1 mg/ml, 24 hours): 98.30%
Percentage of ^225Ac present in [^225Ac]Ac-DOTA-TATE ([2]; DTPA 0.1 mg/ml, 48 hours): 96.74%
Percentage of ^225Ac present in [^225Ac]Ac-DOTA-TATE ([2]; DTPA 0.1 mg/ml, 72 hours): 94.36%
Percentage of ^225Ac present in [^225Ac]Ac-DOTA-TATE ([2]; DTPA 0.3 mg/ml, 0 hour): 98.06%
Percentage of ^225Ac present in [^225Ac]Ac-DOTA-TATE ([2]; DTPA 0.3 mg/ml, 24 hours): 97.19%
Percentage of ^225Ac present in [^225Ac]Ac-DOTA-TATE ([2]; DTPA 0.3 mg/ml, 48 hours): 96.11%
Percentage of ^225Ac present in [^225Ac]Ac-DOTA-TATE ([2]; DTPA 0.3 mg/ml, 72 hours): 93.60%
Percentage of ^225Ac present in [^225Ac]Ac-DOTA-TATE ([2]; DTPA 0.5 mg/ml, 0 hour): 98.40%
Percentage of ^225Ac present in [^225Ac]Ac-DOTA-TATE ([2]; DTPA 0.5 mg/ml, 24 hours): 97.28%
Percentage of ^225Ac present in [^225Ac]Ac-DOTA-TATE ([2]; DTPA 0.5 mg/ml, 48 hours): 95.07%
Percentage of ^225Ac present in [^225Ac]Ac-DOTA-TATE ([2]; DTPA 0.5 mg/ml, 72 hours): 92.73%
Percentage of ^225Ac present in [^225Ac]Ac-DOTA-TATE ([2]; DTPA 0.8 mg/ml, 0 hour): 98.02%
Percentage of ^225Ac present in [^225Ac]Ac-DOTA-TATE ([2]; DTPA 0.8 mg/ml, 24 hours): 97.60%
Percentage of ^225Ac present in [^225Ac]Ac-DOTA-TATE ([2]; DTPA 0.8 mg/ml, 48 hours): 96.57%
Percentage of ^225Ac present in [^225Ac]Ac-DOTA-TATE ([2]; DTPA 0.8 mg/ml, 72 hours): 93.11%
Percentage of ^225Ac present in [^225Ac]Ac-DOTA-TATE ([2]; DTPA 1.0 mg/ml, 0 hour): 98.25%
Percentage of ^225Ac present in [^225Ac]Ac-DOTA-TATE ([2]; DTPA 1.0 mg/ml, 24 hours): 97.37%
Percentage of ^225Ac present in [^225Ac]Ac-DOTA-TATE ([2]; DTPA 1.0 mg/ml, 48 hours): 96.14%
Percentage of ^225Ac present in [^225Ac]Ac-DOTA-TATE ([2]; DTPA 1.0 mg/ml, 72 hours): 94.14%
free Actinium ([3]; 0 hour): 0.5% free Actinium
Percentage of ^225Ac present in [^225Ac]Ac-DOTA-TATE ([3]; 0 hour): 99.5%
fragments ([3]; 24 hours): 3.2%
free Actinium ([3]; 24 hours): 2.0%
Percentage of ^225Ac present in [^225Ac]Ac-DOTA-TATE ([3]; 24 hours): 94.8%
fragments ([3]; 48 hours): 4.8%
free Actinium ([3]; 48 hours): 3.5%
Percentage of ^225Ac present in [^225Ac]Ac-DOTA-TATE ([3]; 48 hours): 91.8%
fragments ([3]; 72 hours): 7.7%
free Actinium ([3]; 72 hours): 8.8%
Percentage of ^225Ac present in [^225Ac]Ac-DOTA-TATE ([3]; 72 hours): 83.5%
fragments ([3]; 96 hours): 11.8%
free Actinium ([3]; 96 hours): 9.2%
Percentage of ^225Ac present in [^225Ac]Ac-DOTA-TATE ([3]; 96 hours): 79.1%
Percentage of ^225Ac present in [^225Ac]Ac-DOTA-TATE ([4]; sodium ascorbate 1 mM, 0 hour, Radioactivity concentration at 1 mCi/ml): 99.76%
Percentage of ^225Ac present in [^225Ac]Ac-DOTA-TATE ([4]; sodium ascorbate 1 mM, 24 hours, Radioactivity concentration at 1 mCi/ml): 91.11%
Percentage of ^225Ac present in [^225Ac]Ac-DOTA-TATE ([4]; sodium ascorbate 1 mM, 48 hours, Radioactivity concentration at 1 mCi/ml): 52.06%
Percentage of ^225Ac present in [^225Ac]Ac-DOTA-TATE ([4]; sodium ascorbate 10 mM, 0 hour, Radioactivity concentration at 1 mCi/ml): 99.78%
Percentage of ^225Ac present in [^225Ac]Ac-DOTA-TATE ([4]; sodium ascorbate 10 mM, 24 hours, Radioactivity concentration at 1 mCi/ml): 92.21%
Percentage of ^225Ac present in [^225Ac]Ac-DOTA-TATE ([4]; sodium ascorbate 10 mM, 48 hours, Radioactivity concentration at 1 mCi/ml): 86.11%
Percentage of ^225Ac present in [^225Ac]Ac-DOTA-TATE ([4]; sodium ascorbate 100 mM, 0 hour, 0.02 mCi/ml, 0.05 mg/ml DTPA): 99.15%
Percentage of ^225Ac present in [^225Ac]Ac-DOTA-TATE ([4]; sodium ascorbate 100 mM, 24 hours, 0.02 mCi/ml, 0.05 mg/ml DTPA): 98.76%
Percentage of ^225Ac present in [^225Ac]Ac-DOTA-TATE ([4]; sodium ascorbate 100 mM, 48 hours, 0.02 mCi/ml, 0.05 mg/ml DTPA): 96.94%
Percentage of ^225Ac present in [^225Ac]Ac-DOTA-TATE ([4]; sodium ascorbate 100 mM, 72 hours, 0.02 mCi/ml, 0.05 mg/ml DTPA): 96.16%
Percentage of ^225Ac present in [^225Ac]Ac-DOTA-TATE ([4]; sodium ascorbate 100 mM, 96 hours, 0.02 mCi/ml, 0.05 mg/ml DTPA): 95.84%
Percentage of ^225Ac present in [^225Ac]Ac-DOTA-TATE ([4]; sodium ascorbate 100 mM, 120 hours, 0.02 mCi/ml, 0.05 mg/ml DTPA): 95.44%
Percentage of ^225Ac present in [^225Ac]Ac-DOTA-TATE ([4]; sodium ascorbate 100 mM, 144 hours, 0.02 mCi/ml, 0.05 mg/ml DTPA): 95.34%
Percentage of ^225Ac present in [^225Ac]Ac-DOTA-TATE ([4]; sodium ascorbate 200 mM, 0 hour, 0.02 mCi/ml, 0.05 mg/ml DTPA): 99.22%
Percentage of ^225Ac present in [^225Ac]Ac-DOTA-TATE ([4]; sodium ascorbate 200 mM, 24 hours, 0.02 mCi/ml, 0.05 mg/ml DTPA): 98.16%
Percentage of ^225Ac present in [^225Ac]Ac-DOTA-TATE ([4]; sodium ascorbate 200 mM, 48 hours, 0.02 mCi/ml, 0.05 mg/ml DTPA): 97.12%
Percentage of ^225Ac present in [^225Ac]Ac-DOTA-TATE ([4]; sodium ascorbate 200 mM, 72 hours, 0.02 mCi/ml, 0.05 mg/ml DTPA): 95.63%
Percentage of ^225Ac present in [^225Ac]Ac-DOTA-TATE ([4]; sodium ascorbate 200 mM, 96 hours, 0.02 mCi/ml, 0.05 mg/ml DTPA): 95.51%
Percentage of ^225Ac present in [^225Ac]Ac-DOTA-TATE ([4]; sodium ascorbate 200 mM, 120 hours, 0.02 mCi/ml, 0.05 mg/ml DTPA): 94.38%
Percentage of ^225Ac present in [^225Ac]Ac-DOTA-TATE ([4]; sodium ascorbate 200 mM, 144 hours, 0.02 mCi/ml, 0.05 mg/ml DTPA): 91.27%
